# ± gives the standard deviation of the averaged measurements.
# Test system: ATP
# Assay: switch fluorescence ratio, 500 uM ATP over buffer (Cy3 cluster intensity, sum of 5 cycles each) (fold (ratio)); higher = stronger signal-on switching upon ATP binding; sequences stand for … in TCGTCGGCAGCGTCAGATGTGTATAAGAGACAGTTTTTTTTTTTTTTTTTTTTTTTTT…TC
# Conditions: aptamer strand: ATP DNA aptamer (quencher-CACCTGGGGGAGTATTGCGGAGGAAGG + anchor), 100 nM annealed; ATP concentration: 500 uM
# Procedure, shortened: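 After annealing to 100 nM quencher-labelled ATP aptamer, Cy3-labelled switching-strand clusters on a modified Illumina MiSeq flow-cell were imaged in selection buffer. A second image followed after 15 min with 500 uM ATP at 22 °C, and five such buffer/ATP cycles were done, each separated by NaOH stripping and re-annealing. The fluorescence ratio, averaged per switch-domain sequence, is summed target-cycle over summed buffer-cycle Cy3 intensity per cluster, with clusters outside 100-1000 RFU excluded.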
# 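Note: ATP exposure 15 min at 22 °C before imaging.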
row,Sequence,switch fluorescence ratio
1,ATATGGGCTT,0.986 ± 0.014
2,TACGTCATTA,1.2 ± 0.012
3,TTCTTGTCGG,0.984 ± 0.027
4,GTTTTATCCT,1.05 ± 0.011
5,CTTGGGGCGC,1.01 ± 0.049
6,GGAAAAGTTC,1 ± 0.058
7,TTGGGTGAGT,1.01 ± 0.014
8,TTGAAAGGGG,0.996 ± 0.083
9,GGCGGTGGGT,0.999 ± 0.038
10,GGGAGAAAGT,0.9995 ± 0.0034
11,TCTTGGGTTT,0.992 ± 0.012
12,TATGTTATGT,1.01 ± 0.052
13,TGGCCGGTTT,1.01 ± 0.011
14,TAATGGGACG,1.08 ± 0.14
15,TGGTTGTTGG,0.95 ± 0.02
16,GGTATGGATA,1 ± 0.027
17,GGTGGGGTCC,0.987 ± 0.011
18,AGCGCGTCGC,0.955 ± 0.016
19,AGGGGTAAAG,0.955 ± 0.021
20,TTCGGGGGTG,1.01 ± 0.031
21,CGGTTATGGA,0.999 ± 0.026
22,TACGGTGGGA,1.0079 ± 0.00053
23,TTTTTAGGAG,1 ± 0.035
24,CCGGCGGAAG,1.003 ± 0.0011
25,TTTTACTAAA,1.06 ± 0.036
26,GGGCCATTGG,1 ± 0.018

row,Sequence,switch fluorescence ratio
1,AACCCGTTTC,1.09 ± 0.07
2,TGAAGCTGCC,1.28 ± 0.042
3,GATTGGGTTC,0.9685 ± 0.0036
4,AGAAAATATT,1.004 ± 0.0076
5,ACTGCTTCCT,1.34 ± 0.051
6,TTTGTTATGG,1.02 ± 0.063
7,CGGTTTTTTC,1.03 ± 0.027
8,TGTGGGAAGG,1.05 ± 0.074
9,CGAATAGCGG,0.9757 ± 0.002
10,GGATCCATTC,0.972 ± 0.019
11,ACCGGTTACG,1.027 ± 0.0055
12,GAGCAATGTG,1.22 ± 0.3
13,CGCGACAACA,0.999 ± 0.031
14,TGTTTTAGAC,0.997 ± 0.035
15,GGGAGGTTCT,0.974 ± 0.033
16,GACGGCGCTG,0.957 ± 0.049
17,TATAGAAGGG,1 ± 0.053
18,GGGTGGTGTA,1.07 ± 0.096
19,TTCTGGAAAT,0.994 ± 0.016
20,TGGGGGCTAT,0.989 ± 0.053
21,ATTGTATGGT,0.956 ± 0.012
22,GATATGTGTT,1.001 ± 0.0024
23,TTGGGGAGGC,0.9835 ± 0.0015
24,CGTTTGGCGT,1.12 ± 0.2
25,TTATCTGATT,0.9952 ± 0.0017
26,AGGTGTAGGC,0.979 ± 0.038

row,Sequence,switch fluorescence ratio
1,GGTCCGATTA,1 ± 0.056
2,ATAGGCGCGG,1.01 ± 0.02
3,CCTTGGCCGA,1.17 ± 0.0041
4,ACCATATGGA,1.02 ± 0.064
5,CTTCCCGCCG,1.26 ± 0.057
6,AGTCGTTCTG,0.99 ± 0.01
7,TTGGGGGCGC,1.01 ± 0.031
8,TTATATTACT,1.01 ± 0.027
9,GGTCGCACCA,1.02 ± 0.033
10,TTTATGGAAG,0.988 ± 0.013
11,CACATGGTGT,1.15 ± 0.02
12,TAAGCGGGG,1.002 ± 0.0026
13,TCGGTGTCGG,0.98 ± 0.037
14,ATTTGCGTAC,1.277 ± 0.0018
15,GCAGCATCTG,1.01 ± 0.024
16,AACTCTGTTA,0.982 ± 0.03
17,GGGTCTAAG,0.987 ± 0.041
18,TATGGGTTAA,1.01 ± 0.022
19,GCATGTAGAT,0.998 ± 0.047
20,ATGCGGTTTT,0.986 ± 0.03
21,AAATCAGGTT,0.972 ± 0.016
22,GATGGGGATT,1.04 ± 0.069
23,GTAAAAATGG,1.05 ± 0.12
24,ATGTGGGTAT,1.028 ± 0.0068
25,TAAGGGGTCC,0.979 ± 0.013
26,ATTTTTCTTT,0.992 ± 0.012

row,Sequence,switch fluorescence ratio
1,GGACTTTAAG,0.952 ± 0.046
2,AGGGCAAGTT,1.01 ± 0.064
3,ACATGAACCT,2.14 ± 0.077
4,TACCGCGTGG,1.03 ± 0.017
5,GGGATTAGCA,0.988 ± 0.042
6,GCAGTAAGTT,0.978 ± 0.061
7,AGCAACCCCT,1.81 ± 0.022
8,CAGGATGCAT,1.01 ± 0.02
9,GGGTAGGAAA,1.011 ± 0.007
10,CGTTTGTTTG,0.988 ± 0.021
11,CGTATAGGTG,1.06 ± 0.077
12,TACTTAATAG,1.03 ± 0.0015
13,TGCCTCAGGG,1.08 ± 0.021
14,GGATTAGGTC,1.02 ± 0.019
15,GTTTTAGATA,0.993 ± 0.031
16,TTAAGGTTTA,1.02 ± 0.038
17,CTCGGTTGGT,1.006 ± 0.0083
18,CGTTCTGAGT,0.955 ± 0.016
19,CCACTGGGCA,1.02 ± 0.042
20,GTCGTAGCGA,1.24 ± 0.016
21,GTTTGTAGGC,0.9641 ± 0.0017
22,TTACCCCAGT,1.21 ± 0.036
23,CGTACTCTCA,1.037 ± 0.006
24,ATTACGTAGC,1.428 ± 0.0063
25,CCTGGGGATC,1.15 ± 0.098
26,TAGAGTTATT,1.01 ± 0.014

row,Sequence,switch fluorescence ratio
1,ATGGGCGGGG,0.9947 ± 0.0065
2,CAATCTTGTC,0.975 ± 0.057
3,ACACATCATA,1.07 ± 0.032
4,AAAGATAATT,0.982 ± 0.018
5,ATGAAAATTT,1.05 ± 0.017
6,TCGTAATAGG,1.118 ± 0.011
7,GGTTTGGTAT,0.99 ± 0.021
8,ATGAGGGCTT,0.981 ± 0.055
9,TGTATGATGT,1.03 ± 0.049
10,TTGAGGGTCC,1.004 ± 0.0056
11,ATGAGCTATT,1.03 ± 0.027
12,AAAATATTCG,1.01 ± 0.011
13,AATTTATGC,0.97 ± 0.011
14,AGGTTCGGAG,1.04 ± 0.06
15,GTGGGGGTTC,0.985 ± 0.041
16,AAATAAACA,0.999 ± 0.023
17,CGAGAAGTTT,1.005 ± 0.0081
18,ACTTGCTATA,1.06 ± 0.029
19,GAGCCGGAGC,0.993 ± 0.012
20,GGATGGATTG,1.004 ± 0.0022
21,GCGATATCTT,1.04 ± 0.029
22,TACGAAGTAG,0.993 ± 0.042
23,AGGCGGGAGG,1.034 ± 0.0056
24,CTGGGTGGGC,0.993 ± 0.018
25,CAGGCAGGAC,2.24 ± 0.17
26,ACCTTATAAT,1.025 ± 0.0092

row,Sequence,switch fluorescence ratio
1,GGATTTGGCG,0.985 ± 0.029
2,GCATCTTCAC,1.0378 ± 0.00044
3,GGTTGACTTG,1.01 ± 0.059
4,CGGGGTGAAA,0.983 ± 0.029
5,GATGATTGGT,0.998 ± 0.015
6,GGGGGTGGTC,1.01 ± 0.04
7,GACGAGCGGG,1 ± 0.025
8,CAGATGTCAA,0.993 ± 0.013
9,TATGTACACT,1.06 ± 0.053
10,TTCTATTTGA,1.0138 ± 0.00028
11,TTCTTTAGGG,1.16 ± 0.26
12,GACCGGGTAA,1.02 ± 0.033
13,GGTTCAGCGT,0.984 ± 0.015
14,ATTTGTAATC,1.22 ± 0.31
15,AATCTGGGGC,0.968 ± 0.011
16,TAATTAATAG,0.9971 ± 0.0031
17,TATAGGAGGT,0.987 ± 0.062
18,TATTTAGTTT,1.01 ± 0.023
19,CCATAGGATA,1.0259 ± 0.00058
20,TTTTAATAGC,1 ± 0.028
21,ATAGAGCTTG,0.997 ± 0.024
22,GGTATTGAGG,0.9871 ± 0.003
23,CACTTGGTTG,0.997 ± 0.051

# — the supplement of paper PMC10126150
